Source: patent publication US20220251215A1 (Regeneron, published 2022)

Legend:
[1] = target: T1, monomeric HLA-A2:NY-ESO-1(156-165) (V at position 165) peptide complex, 2906; assay: SPR, 25 C, antibody captured, monomeric complex injected;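 further: antibody held on sensor chip via immobilized anti-human or anti-mouse Fc antibody, rate constants derived by fitting sensorgrams to a 1:1 binding model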
T1 construct: also called soluble HLA-A2:NY-ESO-1 peptide complex

[2] = target: T1, monomeric HLA-A2:NY-ESO-1(156-165) (V …); assay: SPR, 37 C, antibody captured, monomeric complex injected
[3] = target: HLA-A2 on T2 cells pulsed with URB1: 1853-1861 peptide (human); assay: flow cytometry, 10 ug/ml, pulsed T2 cells
[4] = target: T2, HLA-A2 on T2 cells pulsed with NY-ESO-1:157-165, wt peptide (C165) (human); assay: flow cytometry, 10 ug/ml, pulsed T2 cells
T2 construct: also called T2 Pulsed NY-ESO-1_157-165

[5] = target: HLA-A2 on T2 cells pulsed with ITCH (807-815) peptide (human); assay: flow cytometry, 10 ug/ml, pulsed T2 cells
[6] = target: HLA-A2 on T2 cells pulsed with FBXL22: 4-12 peptide (human); assay: flow cytometry, 10 ug/ml, pulsed T2 cells
[7] = target: HLA-A2 on T2 cells pulsed with EARS2: 306-314 peptide (human); assay: flow cytometry, 10 ug/ml, pulsed T2 cells
[8] = target: HLA-A2 on T2 cells pulsed with GRID1: 7-15 peptide (human); assay: flow cytometry, 10 ug/ml, pulsed T2 cells
[9] = target: HLA-A2 on T2 cells pulsed with BCL9L: 1351-1359 peptide (human); assay: flow cytometry, 10 ug/ml, pulsed T2 cells
[10] = target: T2, HLA-A2 on T2 cells pulsed with …; assay: flow cytometry, peptide-pulsed T2 cells
[11] = target: HLA-A2 on T2 cells pulsed with ZDHHC1 (376-384) peptide (human); assay: flow cytometry, 10 ug/ml, pulsed T2 cells
[12] = target: HLA-A2 on T2 cells pulsed with MAGEH1: 90-98 peptide (human); assay: flow cytometry, 10 ug/ml, pulsed T2 cells

Row | Kd [1] [nM] | t½ [1] [min] | Kd [2] [nM] | t½ [2] [min] | ratio of MFI, pulsed to unpulsed [3] [ratio] | ratio of MFI, pulsed to unpulsed [4] [ratio] | ratio of MFI, pulsed to unpulsed [5] [ratio] | ratio of MFI, pulsed to unpulsed [6] [ratio] | ratio of MFI, pulsed to unpulsed [7] [ratio] | ratio of MFI, pulsed to unpulsed [8] [ratio] | ratio of MFI, pulsed to unpulsed [9] [ratio] | EC50 [10] [nM] | ratio of MFI, pulsed to unpulsed [11] [ratio] | ratio of MFI, pulsed to unpulsed [12] [ratio] | koff [1] [s⁻¹] | kon [1] [M⁻¹ s⁻¹] | koff [2] [s⁻¹] | kon [2] [M⁻¹ s⁻¹] | Binder
1 | 0.639 | 35.5 | 1.94 | 7.9 | 0.6 | 115 | 0.9 | 0.5 | 0.5 | 0.9 | 1 | 0.6 | – | – | – | – | – | – | mAb28113P (antibody, human IgG4 S228P, kappa, V domains shown) VH: EVQLVESGGGVVQPGGSLRLSCAASGFTFDDYAMHWVRQAPGKGLEWVSLISGGGGGTYYSDSVKGRFTISRDTSKDSLYLQMNSLRTEDTALYYCAKDMVFGVVTPYYYFALDVWGQGTTVTVSS VL: not shown
2 | – | – | – | – | 7.9 | 124 | 0.9 | 0.5 | 0.6 | 1.6 | 150 | 1.1 | 0.6 | 0.4 | – | – | – | – | mAb29814P (antibody, human IgG4 S228P, kappa, V domains shown) VH: QVQLVESGGGVVQPGRSLRLSCVASGFTFSSYGMHWVRQAPGKGLEWVAVIWYVGSNKYYGDSVKGRFTISRDNSKNTLYLQMNSLRAEDTAVYYCARDLIADRPGYYYNGMDVWGQGTTVTVSS VL: EIVMTQSPVTLFVSPGERATLSCRASQSVNTNLAWYQQQPGQAPRLLIHGASTRPTGVPARFSGSGSGTEFTLIISSLQSEDFAVYYCQQYNNWPPWTFGQGTKVEIKR
3 | 0.55 | 58 | 2.09 | 9.9 | 0.5 | 134 | 0.7 | 0.5 | 0.6 | 17.4 | 46.5 | 1.6 | 0.5 | 0.4 | 0.000199 | 362000 | 0.00117 | 561000 | mAb28042P (antibody, human IgG4 S228P, kappa, V domains shown) VH: QLQLQESDPGLVKPSETLSLTCTVSGDSIRNSNYYWGWIRQPPGKGLEWIGSIYFSGRTYFNPSLKSRVTIPVDMSKNQFSLMLNSVTATDTAVYYCARHGGITAAGGFFDYWGQGTLVTVSS VL: DIQMTQSPSSLSASVGDRVTITCQASQDISNYLNWYQQKPGKAPNVLIYDASNLETGVPSRFSGSGSGTDFTFTISSLQPEDFATYYCQQNDNLPLTFGGGTKVEIKR
4 | 1.23 | 22.3 | – | – | 0.6 | 131 | 0.9 | 0.5 | 0.6 | 3.2 | 80.7 | 1.1 | 0.4 | 0.4 | 0.000517 | 421000 | – | – | mAb24959N (antibody, human IgG4 S228P, kappa, V domains shown) VH: QLQLLESGPGLVKPSETLSLICTVSGGSIRGSSYYWGWIRQPPEKGLEWIGSIYSSGSTYYNPSLKSRVTISADTSKNQFSLKLSSVTAADTAVYYCARHGGITAVQLEFDPWGQGTLVTVSS VL: DIQMTQSPSSLSASVGDRVTITCQASQDISNYLKWYQQKPGKAPKILIHDASNLEIGVPSRFSGSGAGTDFIFTISSLQPEDIGTYYCQQYDNLPITFGQGTRLEIKR
5 | 0.342 | 75.9 | 0.378 | 45.7 | 0.5 | 131 | 1 | 0.5 | 0.6 | 1.4 | 170 | 2.7 | 0.9 | 0.4 | 0.000152 | 445000 | 0.000253 | 669000 | mAb28035P (antibody, human IgG4 S228P, kappa, V domains shown) VH: QVQLVQSGAEVMKPGASVKVSCKVSGYTLSDLSMHWVRQAPGKGLEWMGGFDFEHGKTIYAQKFQGRVTMTEDTSTDTTYMELSSLRSEDTAVYYCAKVPNWGFFDYWGQGTLVTVSS VL: not shown
6 | 0.388 | 32.8 | 1 | 9.1 | 0.5 | 58.8 | 1 | 0.5 | 0.5 | 1.4 | 1.5 | 0.38 | – | 0.5 | – | – | – | – | mAb28075P (antibody, human IgG4 S228P, kappa, V domains shown) VH: EVQLVESGGGVVQPGGSLRLSCAASGFTFDDYAMHWVRQAPGKGLEWVSLISGDGDNTYYADSVKGRFTISRDNNKNSLYLQMNSLRTEDTAFYYCAKELIFGKVLHDFYYYVMDVWGQGTTVTVSS VL: not shown
7 | 2.27 | 9 | – | – | – | – | – | – | – | – | – | – | – | – | – | – | – | – | mAbm24955N (antibody, V domains shown, the prefix mAbm is not explained (perhaps a mouse constant region)) VH: EVQLVESGGGVVQPGGSLRLSCVASGFTFDDYAMYWVRQVPGKDLEWVSLISGDGDITYYVDSVKGRFTVSRDNNKNSLYLQMKSLRVEDTALYYCAKDMIYYASWSGYGSSDYYYYVMDVWGQGTTVTVSS VL: not shown
8 | 0.692 | 37.7 | 2.76 | 6.3 | 0.6 | 137 | 1.3 | 0.5 | 0.6 | 0.7 | 52.3 | 0.78 | 0.5 | 0.4 | 0.000307 | 443000 | 0.00183 | 664000 | mAb28037P2 (antibody, human IgG4 S228P, kappa, V domains shown) VH: QVQLQESGPGLVKPSETLSLTCTVSGDSISVYYWTWIRQPPGKGLEWIGYVHYTGYTNYNPSLKSRVTMSVDTAKKQISLKVRSVTAADTAVYYCARTIPAAAHYYHGTDVWGPGTTVTVSS VL: DIQMTQSPSSLSASVGDRVTITCQANQDIRKYLNWYQQKSGKAPTLLIYEASNLETGAPSTFSGSGSGTEFTFTISSLRPEDIATYYCQQYESLPLTFGGGTKVEIKR
9 | – | – | – | – | – | 36.7 | 0.8 | – | 0.5 | 0.7 | 0.8 | 5.4 | – | – | – | – | – | – | mAb29822P2 (antibody, human IgG4 S228P, kappa, V domains shown) VH: EVQLVESGGGVVQPGGSLRLSCAVSGFTFDDYAMHWVRQAPGKGLEWVSLISGDGGSTHYADSVKGRFTISRDNSKNSLYLQMNSLRTGDTALYYCAKDMIFAVVITDYHYYGMDVWGQGTTVTVSS VL: not shown
10 | 0.387 | 31.6 | – | – | 0.5 | 125 | 0.9 | 0.5 | 0.6 | 1 | – | 0.47 | – | – | – | – | – | – | mAb24956N (antibody, human IgG4 S228P, kappa, V domains shown) VH: EVQLVESGGGVVQPGGSLRLSCAASGFTFDDYAMYWVRQAPGKGLEWVSLISGDGGSMYYADSVKGRFTISRDNSKNSLYLQMNSLRTEDTALYYCAKDMIFYAFWSGYGSSDYYYYVMDVWGQGTTVTVYS VL: not shown
11 | 2.77 | 65.4 | – | – | 0.6 | 98.6 | 1 | 0.5 | 0.6 | 0.7 | – | 19 | – | 0.5 | – | – | – | – | mAb24958N (antibody, human IgG4 S228P, kappa, V domains shown) VH: QVQLQESGPGLVKPSQTLSLTCTVSGGSIISDGYYWSWIRQHPGKGLEWIGYVDYSGNTYYNPSLKSRIIMSVDTSKNQFSLKLTSVTAADTAVYFCVREGPLRDAFEIWGQGTMVTVSS VL: DIQMTQSPSSLSASVGDRVTITCRTSQSISRYLNWYQQKPGKAPKLLIFAASSLQSGVPSRFSGSGSGADFTLTISSLQPEDFATYYCQQSYSTPPITFGQGTRLEIKR
12 | 0.386 | 62.8 | 0.586 | 21.3 | 0.6 | 126 | 1 | 0.5 | 0.6 | 0.7 | – | 1.8 | 0.5 | 0.5 | – | – | – | – | mAb28105P (antibody, human IgG4 S228P, kappa, V domains shown) VH: EVQLVESGGGVVQPGGSLRLSCEASGFIFDDYAMHWVRQAPGKGLEWVSLISGDGDIIYYADSVKGRFTISRDNSKNSLYLQMNSLIIEDTALYYCAKDWVFGVVMTHYWYFGLDVWGQGTTVTVSS VL: DIQMTQSPSSLSASEGDRVTITCRASQSISTYLNWYQQKPGKAPKLLIYGASSLQSGVPSRFSGSGSGTDFTLTISSLQPEDFATYYCQQSYSTPPITFGQGTKVEIKR
